According to patent publication US9278138B2, “Peptide linkers for effective multivalent peptide binding” (E. I. DU PONT DE NEMOURS AND COMPANY, priority 2008, dated 2016):

Test: Surface Plasmon Resonance binding to spin-coated cellulose acetate surface (Biacore X100)
Settings: for peptide concentration at which binding response (net RU) started rising: net RU versus peptide concentration, FIG. 6
Protocol: Binding affinity of CA4 peptide and CA4 multimers were assessed by Surface Plasmon Resonance (SPR). The CA surface was prepared by spin-coating 0.75% CA solution in mixed cyclohexanone/methyl ethyl ketone (1/9 weight ratio) solvent at 2000 rpm for 1 minute twice on the Biacore bare gold sensor chip (Biacore Inc., Catalogue numberBR-1004-05; General Electric Corp., Fairfield, Conn.), followed by 80° C. annealing for 15 minutes. The CA resin used was CA-398-10 from Eastman Chemical Company (Kingsport, Tenn.), and the solution prepared was filtered with 0.2 μm PTFE membrane before use. The thickness of the spin-coated CA thin film was measured by Atomic Force Microscope (AFM) to be 26-30 nm.
Binding of each peptide to the CA surface was tested at various concentration ranges in Tris Buffered Saline (TBS, 25 mM Tris, 150 mM NaCl, pH 7.5), using Biacore X100 system. Each peptide solution sample was injected for 2 minutes at flow rate of 30 μL/minute followed by 10 minutes buffer wash. Surface regeneration and stabilization procedure was performed after each peptide solution injection as such: 90 seconds of 1% SLES (sodium laureth sulfate) solution injection and 90 seconds of 2 M NaCl solution injection at flow rate of 10 μL/minute, and 25 minutes stabilization in TBS. For the samples of each peptide at different concentrations, a new sensor chip flow cell was used.
Because a monolithic CA surface made from spin-coating on the whole sensor chip was used as ligand for peptides, no ligand-free reference cell was possible to have in these tests in order to take bulk response out as in conventional SPR protein assay using Biacore instruments. Bulk response refers to the SPR response to the refractive index difference between the sample solution and the running buffer, but not caused by sample binding to the surface. Bulk response completely disappears once sample injection is finished and buffer wash starts. So the response units (RU) remained right after injection was caused by binding and proportional to the mass of peptide bound to the surface, and was named as “net RU” in binding data. […] Typically, association and dissociation rate constant (ka and kd) can be obtained from binding kinetics curve fitting, and dissociation constant (KD). can be determined from the ratio of dissociation rate constant to association rate constant. The use of short linkers (3-6 amino acid residues) in CA4 dimer 1, CA4 dimer 2 and CA4 trimer gave 5 fold improvement on binding affinity compared to CA4 monomer. The use of long rigid linker (TonB linker) in CA4 dimer 4 gave 50 fold improvement on binding affinity compared to CA4 monomer. […] As control, the TonB linker peptide was tested in the same way.

[1] = TBS pH 7.5, from binding kinetics curve fitting

Molecule	binding affinity to CA surface (in words) (SPR)	KD(M) from kinetics (TBS pH 7.5, ratio of kd to ka)	peptide concentration at which binding response (net RU) started rising	ka [1]	kd [1]	Kd (TBS pH 7.5, ratio of kd to ka, read-out: KD(M) from kinetics)	fold improvement on binding affinity compared to CA4 monomer (based on KD of Table 10)
GPEPEPEPEPIPEPPKEAPWIEKPKPKPKPKPKPA [TonB linker, reference compound]	no binding affinity	undetectable	> 50 µM				
SDETGPQIPHRRPTWGPEPEPEPEPIPEPPKEAPVVIEKPKPKPKPKPKPPASDETGPQIPHRRPTW (synethic cellulose acetate-binding construct) SDETGPQIPHRRPTWGPEPEPEPEPIPEPPKEAPVVIEKPKPKPKPKPKPPASDETGPQIPHRRPTW			5 µM	441.5 M⁻¹ s⁻¹	0.00089 s⁻¹	2e-06 M	50 fold
